# Source: article PMC5481814, “Stapled Voltage-Gated Calcium Channel (CaV) α-Interaction Domain (AID) Peptides Act As Selective Protein–Protein Interaction Inhibitors of CaV Function” (ACS Chemical Neuroscience, 2017)
# Tests used:
# [1] = target: CaVβ2a core (Rattus norvegicus) (UniProt Q8VGC3); assay: ITC; settings: cited from earlier work
# [2] = target: Human CaV1.2 (α1C77) (human) (UniProt Q13936)
# [3] = target: Human CaV1.2-Y437A (human)
# [4] = target: CaVβ2a core (unimolecular CaVβ2a construct) (rat); assay: ITC; 20 μM AID peptide titrated into 2 μM CaVβ2a core; 15 °C; 150 mM KCl, 10 mM potassium phosphate, pH 7.3; single site binding model
# Sequence of Human CaV1.2 (α1C77) (human) (Q13936 other isoform, or with tags, fused parts or gaps): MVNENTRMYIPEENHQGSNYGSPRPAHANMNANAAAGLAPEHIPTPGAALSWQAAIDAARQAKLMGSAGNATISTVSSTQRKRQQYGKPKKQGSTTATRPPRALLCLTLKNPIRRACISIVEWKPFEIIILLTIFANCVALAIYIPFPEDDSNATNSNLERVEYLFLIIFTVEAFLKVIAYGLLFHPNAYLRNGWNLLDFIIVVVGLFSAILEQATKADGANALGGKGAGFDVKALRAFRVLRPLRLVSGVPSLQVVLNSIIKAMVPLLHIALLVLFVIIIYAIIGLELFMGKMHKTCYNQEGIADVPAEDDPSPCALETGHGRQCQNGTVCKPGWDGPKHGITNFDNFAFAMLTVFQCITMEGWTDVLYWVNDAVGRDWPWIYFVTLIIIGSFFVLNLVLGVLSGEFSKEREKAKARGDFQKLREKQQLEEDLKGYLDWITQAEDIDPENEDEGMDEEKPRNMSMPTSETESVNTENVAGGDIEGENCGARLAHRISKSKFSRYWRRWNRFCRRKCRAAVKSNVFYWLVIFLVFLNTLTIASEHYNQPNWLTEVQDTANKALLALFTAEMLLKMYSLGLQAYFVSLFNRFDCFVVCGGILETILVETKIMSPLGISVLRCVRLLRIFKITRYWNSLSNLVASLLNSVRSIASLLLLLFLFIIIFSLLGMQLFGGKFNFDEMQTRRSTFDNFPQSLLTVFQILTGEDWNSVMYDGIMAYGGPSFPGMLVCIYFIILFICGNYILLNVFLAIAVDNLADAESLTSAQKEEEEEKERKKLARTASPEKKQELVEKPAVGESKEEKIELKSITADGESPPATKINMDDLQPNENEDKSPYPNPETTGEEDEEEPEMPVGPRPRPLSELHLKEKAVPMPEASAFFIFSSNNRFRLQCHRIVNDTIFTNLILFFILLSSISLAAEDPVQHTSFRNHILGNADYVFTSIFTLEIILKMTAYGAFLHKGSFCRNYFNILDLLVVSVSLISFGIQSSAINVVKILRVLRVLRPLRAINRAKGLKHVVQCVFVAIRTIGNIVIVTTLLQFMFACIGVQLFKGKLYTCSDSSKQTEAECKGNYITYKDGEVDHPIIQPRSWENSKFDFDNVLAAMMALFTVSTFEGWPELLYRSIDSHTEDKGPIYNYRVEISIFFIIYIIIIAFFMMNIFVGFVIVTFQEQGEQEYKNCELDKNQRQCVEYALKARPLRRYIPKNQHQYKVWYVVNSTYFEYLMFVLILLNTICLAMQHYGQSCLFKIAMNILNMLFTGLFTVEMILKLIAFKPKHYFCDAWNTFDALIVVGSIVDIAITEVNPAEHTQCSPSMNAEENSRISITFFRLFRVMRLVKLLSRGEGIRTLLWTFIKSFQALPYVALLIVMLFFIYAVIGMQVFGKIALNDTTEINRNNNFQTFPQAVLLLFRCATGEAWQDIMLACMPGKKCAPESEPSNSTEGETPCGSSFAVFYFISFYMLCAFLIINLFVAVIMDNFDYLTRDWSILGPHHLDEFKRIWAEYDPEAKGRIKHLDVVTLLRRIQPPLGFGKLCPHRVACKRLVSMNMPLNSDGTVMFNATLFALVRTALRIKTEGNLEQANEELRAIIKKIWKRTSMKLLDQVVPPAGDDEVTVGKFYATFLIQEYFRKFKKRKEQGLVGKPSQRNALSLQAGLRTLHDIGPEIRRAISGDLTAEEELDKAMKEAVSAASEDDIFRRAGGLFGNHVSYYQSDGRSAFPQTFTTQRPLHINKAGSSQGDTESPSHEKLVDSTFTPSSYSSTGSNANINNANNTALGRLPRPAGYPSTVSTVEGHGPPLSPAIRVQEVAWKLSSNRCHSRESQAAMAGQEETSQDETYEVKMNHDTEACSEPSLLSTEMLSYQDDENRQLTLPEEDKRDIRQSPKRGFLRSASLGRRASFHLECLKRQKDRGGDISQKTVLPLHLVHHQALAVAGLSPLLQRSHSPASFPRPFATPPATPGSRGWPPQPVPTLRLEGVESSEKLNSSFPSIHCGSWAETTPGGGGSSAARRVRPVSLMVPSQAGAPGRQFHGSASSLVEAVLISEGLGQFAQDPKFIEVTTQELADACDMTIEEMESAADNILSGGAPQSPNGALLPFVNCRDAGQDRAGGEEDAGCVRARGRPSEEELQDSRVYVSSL
# Sequence of CaVβ3 (expressed in oocytes) (P54286 whole entry): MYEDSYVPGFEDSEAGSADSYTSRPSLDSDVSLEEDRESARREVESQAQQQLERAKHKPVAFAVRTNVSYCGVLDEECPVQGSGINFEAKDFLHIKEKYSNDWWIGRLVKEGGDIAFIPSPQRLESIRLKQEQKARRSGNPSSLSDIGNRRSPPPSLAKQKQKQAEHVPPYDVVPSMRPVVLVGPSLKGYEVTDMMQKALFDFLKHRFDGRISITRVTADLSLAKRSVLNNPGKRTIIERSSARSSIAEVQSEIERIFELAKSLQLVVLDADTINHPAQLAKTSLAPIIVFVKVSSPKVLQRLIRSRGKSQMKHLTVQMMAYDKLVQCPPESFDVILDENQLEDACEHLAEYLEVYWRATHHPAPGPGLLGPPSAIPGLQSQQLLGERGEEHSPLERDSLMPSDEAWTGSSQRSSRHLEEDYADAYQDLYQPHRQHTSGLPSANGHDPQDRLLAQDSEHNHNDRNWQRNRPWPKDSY
# Sequence of CaV1.2 AID peptide AID (Q13936 425-448): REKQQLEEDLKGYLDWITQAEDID
# Sequence of CaVβ2a core (Rattus norvegicus) (Q8VGC3 68-476): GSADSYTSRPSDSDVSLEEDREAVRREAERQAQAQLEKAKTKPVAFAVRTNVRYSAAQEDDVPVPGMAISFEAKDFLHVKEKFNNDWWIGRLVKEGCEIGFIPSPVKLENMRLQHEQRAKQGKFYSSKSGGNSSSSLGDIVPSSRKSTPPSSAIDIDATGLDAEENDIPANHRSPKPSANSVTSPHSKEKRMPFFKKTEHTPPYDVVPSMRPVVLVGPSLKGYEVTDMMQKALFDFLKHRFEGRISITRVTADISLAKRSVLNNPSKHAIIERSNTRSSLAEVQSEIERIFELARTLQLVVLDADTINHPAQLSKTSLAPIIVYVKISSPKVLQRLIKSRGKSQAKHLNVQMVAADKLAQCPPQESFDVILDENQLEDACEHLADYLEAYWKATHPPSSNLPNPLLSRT
substance,measurement,setting,value
CaV1.2 AID peptide AID (from UniProt Q13936),Kd,[1],5.3 nM
CaVβ3 (expressed in oocytes) (from UniProt P54286 1-477) (natural protein),"time constant τ for the loss of CaV1.2:CaVβ3 channels (rundown of Imax, single exponential fit) after injection of 2.8 mM AID peptide",[2],4.6 min
same,"time constant τ for the loss of CaV1.2:CaVβ3 channels (rundown of Imax, single exponential fit) after injection of 2.8 mM AID-CAP peptide",[2],5.3 min
Rat CaVβ2a (expressed in oocytes) (natural protein),time constant τ of the rundown of Imax of CaV1.2-Y437A:CaVβ2a currents after injection of 400 μM AID peptide (single exponential fit),[3],5.3 min
same,time constant τ of the rundown of Imax of CaV1.2-Y437A:CaVβ2a currents after injection of 400 μM AID-CAP peptide (single exponential fit),[3],4.1 min
"CaV1.2 AID peptide (α-interaction domain, unmodified)",Kd,[4],6.6 nM
same,dH,[4],-15.6 kcal mol^–1
same,stoichiometry N,[4],0.94
